Assay results reported in a protein production outcome set (Wang et al. 2014).

Experiment: label from the status in PepcDB records
In the case of “MSRMETSRTLSAFPKIISVDDHTVEPPDVWRDRLPKKYQDTGPRIVRAPLKEMTFLGGKFAPVMGGPGDDGPLGDWWVYEDLHRPLTRLDTAVGYSRDEIKLEVITYEQMRPGSYDVPRRLADMDVNHVQSALCFPTFPRFCGQTFTEAKDRELGLLGVRAYNDWMVEEWCGPDAHGRLIPLTLVPLWDARLAAAEVRRNAARGVRAVAFSEIPPHLGLPSVHTDDWDPFLAACDETGTVIAMHIGSSSRMPSTSADAPPAVGSTITFANCCFSMVDWLMSGKFERFPNLRVMYAEGQIGWIPYILERADVVWEENRGWGGVADKVHRPPSELFAGHVFGCFFDDAFGLRNLDAIGIGNVLYETDYPHSDSTWPKSREVGEAQMGHLEAEVVERIVRGNAIELLGLTDDGLWAGPGGAR”, the protein production is reported as “failed”.
With “MSRPADKPQPFYFAYGSNMNPAQIEARCRKPEVVATARLPDHRLGFFGSSKIWDGGEESAQPEPGADLWGVVYRLSFHDAEILDTWQKVWLDGTGPYFHFPTQVFDAEGRNYPVLLYKRDVLGPRQKPSAPYLDHIIAGAMARALPPPYIDLLRAIPTCQASTPVPRKASFNPEFFAGLACQCGDLEHHHHHH” the protein production was “failed”.
In the case of “MSRQANRGTESKKMSSELFTLTYGALVTQLCKDYENDEDVNKQLDRMGYNIGVRLIEDFLARSNVGRCHDFRETADVIAKVAFKMYLGITPSITNWSPAGDEFSLILENNPLVDFVELPDNHSALIYSNLLCGVLRGALEMVQMAVEAKFVQDTLKGDGVTEIRMRFIRRIEDNLPAGEE”, the protein production is reported as “not failed”.
With “MSRQFIIQLFLALLLCCLTITFSSIAKSAETTSTDDATDLVVAQKIIKNQQQTEKSSSASAVAVQQPQIANDMADGQSIRNLPSLNEPVIDQANLLSSEQRQALSDQIRQLYQTGKAQMAVVIVPTTGQEDIFDYAMRVGEKWQLGSAKRDNGILMAIAVNDRRIQILTGYGLEGVLPDIVVGRIIRDQITPYFKQAQYAQGIQSGVNEIEKIVNMDPEIAQQAAQDLKQRQEQALHEQQARSQMMVYSLIIVVVGIFASYIVGNRLSAATAGVAGIAAGVISGVGLITSLLIGLGIFLLLITSLAQLILQIFASGGGRGGGGGFGGGGGGGYSGGGGSFGGGGASGSW” the protein production was “failed”.
For “MSRRDFTRYVRDKAWLAIPGWLFVAALTLLALRKHLSNLRQHQQLLQGNERIRDSEEQARLILDTAPLALLLVNPQTARIRHANSLAREMLGLPPRDPEQAAGSELNLPLKLQPVEQWLSEGEEVLQQEVELELEDKSRLWAIVSLRRLGHDSQPSALIALYDISGRKLLEQQLHESNQQLAEMAVTDPLTRLYNRRHADMVLRDEISRCERYGQTMAIAVFDIDHFKRFNDQYGHQAGDDVLVAVANALRDTTRNTDINARIGGEEFMVIFPYTRLRDAHKVMSRLQMALTHTTFPFVEQRITFSGGVTDWRPGDSPALMMSRADKLLYDAKQAGRNVVLSDQEEA”, the protein production was “failed”.
With “MSRRSHNPQSCSSVPTALINGPRVETMTDSVLDVTADALEQAGAHPHRLVVRQHGQVVGRRRWAPWSPDVPSLVYSCSKTFTSAAVGIAVNRGAFGYDDTLADLWPQACTANTGPVAKSMTVRNALSMSTGHSPEQLLEPTLMSRRLPDLNTARILLATEPEGRPGIDFAYNNLATWMLSRLVAQHTGEDVDTIITKEVLDPIGAGPHTWVRDADGIPMGFSGLHIDAEDLSLFGQLLLDDGVHEGARLLPEEWIRQHRVRQVNCDSETDPEWGMGYGWQTWMSSHGYRLDGAFGQYVLIVPEVDAVITMTNEASEGPGDKQAILQAVWDHLLPALADGFQPQPEEIVRTVPTVTGEFDSARSVQGIAPDGSYIVVSPHKESRTWAMSWRCPGTFSHPTDETLDIAVGYEEWQTSHCRVGDDAIDIATSGGWQGETFVARLCVISTPHTLTLRMTPEATTTEWDNEPLNPGGLLGLVHPELRR” the protein production was “failed”.
In the case of “MSRVFVIGAAGKVGQRLIKKLGDGGHEVIALHRKEEQSVLIKAAGALPLLANLVEMDAAALSSAMAGSDVVVFTAGAGGAGIELTNAIDGEGLKTSVAAAELAGVRRFLLVSAFPEAARGTDTSAGFENYMRVKKHADVCLASSELDWVILRPGTLVDSAGSGQVRAGLAIPYGDIPRDDVAAFLAALVDQPEISRQIIELTEGTTPVELAIKALGTR”, the protein production is reported as “failed”.
In the case of “MSRVSLRLWDPLVRLFHVSIAGVFVANYFFNEAGDDWHIWLGYYAVAWLAVRVVWGFLGPTSARWSDFWPSPARLRAHVRSLIDRKPVHRLGHSPLGALVMVLMMALIFGMGLTGFLMEEVDALWGADWPLQTHEILANTLCALVVLHMAAAIFESFQVRDNLPLSMLTGKRRPLPEDDYR”, the protein production is reported as “failed”.
With “MSRYRLREHAWCLRQLNVSNKSFLKRSFLVGLGYTPPIRYFIDIGPLPNWTRKEVNELILGRTRVRSPILKLLIELFVHRICSDPRFQVKSSSVNA” the protein production was “failed”.
In the case of “MSSALLRAAYAYDRLRAHPPEVAGQIATAMASAVHPKGEEPVFLELGVGTGRIALPLIARGYRYIALDADAAMLEVFRQKIAGVDRKVQVVQADARAIPLPDESVHGVIVVHLWHLVPDWPKVLAEAIRVLKPGGALLEGWDQAEASPEWTLQERWRAFAAEEGFPVERGLHAKRLKEVEEALRRLGLKPRTREVARWREERTPREALEALSERLYSFTQGLPEPVHARVMERLWAWAEAELGDLDRPFPVEKRFLLRVSRLG”, the protein production is reported as “not failed”.
In the case of “MSSCCGPASPASSGPRTRRPRTATAQGDRHLFFAVYTIVPTDAYFGDAAVCFPPARPHMPIRRSLTIALFLLFPALGSGCQSTAPSTSSPSATEDAPAPLIVISIDGLRWDYLDRHEAPALSRIAEDGAHVDHLTPVFPTKTFPNHYSAVTGLYPSRHGIIANTMYDPAMDASFSLSDREAVMNPDWWGGEPIWVTAEQQGRTAATYFWPGSEAPVRGTRPTEWFEYDGSVPGTTRVDQALQWLDRPADTRPDLITLYFSRVDTKGHRHGPRSDSVATALREVDGFIQRLLDGLAARGLADAVNVMVTGDHGMSPTSRDRTIVLDDYIDPDDVRLTARNPVAMMEPRPGIPADSVVTALDQAPHLSAYRRGTLPDTLHFEGHRRIPSVIAVADDRWSIRTQAWMDENPDWTGGGTHGYDPRSENMHTLLAARGPGFRRNTTVDQLSLLHLYELMSALLDVEPAPNDGRLEAARPLLLPASARTAE”, the protein production is reported as “failed”.
With “MSSEEDKITRISIEPEKQTLLDHHTEKHFTAGEIVRDIIIGVSDGLTVPFALAAGLSGANASSSIVLTAGIAEVAAGAISMGLGGYLAAKSEEDHYAREMKREQEEIVAVPETEAAEVAEILAQYGIEPHEYSPVVNALRKNPQAWLDFMMRFELGLEKPDPKRALQSAFTIAIAYVLGGFIPLLPYMLIPHAMDAVVASVVITLFALFIFGYAKGHFTGSKPLRSAFETAFIGAIASAAAFCLAKVVQH” the protein production was “failed”.
With “MSSEHIDEVSGISTTGHEWDGIRELNNPLPRWWVITFYITVAWAVAYTIAYPAWPMLSSATKGVLGYSSRNAVKIELAAAEAAKGKYVAAIQQKTVSEIAADDALREFAVAAGGATFKVNCVQCHGSGAQGSKGFPNLNDDDWLWGGTTEQIQQTIAHGIRFASDPDTRQSEMPPFGDIITPEQIAQVGAYVASLSGKVQDASLIEPGAKVFGENCVACHGDNAKGNKELGAPNLTDAIWLYAPGETAIAVQVRAPKHGVMPAWIGRLGETKVKELAVYVHSLGGGE” the protein production was “failed”.
For “MSSEVEQNVPCEACGCSAEMGFVIKEGDDVAEVSIFADNKVLLESEFSNYLALAKEVCADVEHSIVITEDEKELHARLKFSCSAEKLIYELKTRSLRRLEHHHHHH”, the protein production was “failed”.
In the case of “MSSITADNAGQYGDSRKLAARARLHSQYTIAETAWFPWVAAQLSLKPGDRVLDVGCGPAWFWAATTGLLPADLDLTLTDLSPGMVDEAVARCSALPFGSVRGCQADAAALPFEDGAFDAVVAMHMLYHLTDPVAGIADMSRVLKPGGLLAVTTNGAGNMREIYALTTLFGSAPSDPAAEAFGYDAAERSMRSQFGNVTMSQHPASLRITEPEDVFLALTSYPPGDGAGEPQLTRFRQAIADAFSQRSGVLEVSKETALFLSRKTV”, the protein production is reported as “failed”.
With “MSSKIFCKSWGAEYIAADVVRFRLWATGQQKVMLRLAGKDQEMQANGDGWFTLDVAGVTPGTEYNFVLSDGMVVPDPASRAQKTDVNGPSYVVDPGSYTWRNTGWKGSRWEQAVVYEMHTGTFTPEGTFRAAIAKLPYLAELGVTVIEVMPVAQFGGERGWGYDGVLLYAPHSAYGTPDDFKAFIDAAHGYGLSVVLDIVLNHFGPEGNYLPLLAPAFFHKERMTPWGNGIAYDVDAVRRYIIEAPLYWLTEYHLDGLRFDAIDQIEDSSARHVLVEIAQRIREDITDRPIHLTTEDSRNIISLHPRDQDGNAPLFTAEWNDDFHNAVHVFATGETQAYYNDFADAPEKHLARALAEGFAYQGEISPQTGEPRGVKSTGQPPVAFVDFIQNHDQVGNRAQGDRLITLAGAERTKVLLATLLLSPHIPLLFMGEEYGESRPFLFFTDFHGDLARAVREGRAKEFADHAGENVPDPNAPETFQRSKLNWKQQHSEEGKAWLAFTRELLLLRQKHIVPLLSAARESSGTVLQTAPGFIAVSWRFPGGTLSLALNISATTVLLPDLPGKTLFAWPNESTGSLSQHSLIVRLAQGESAS” the protein production was “not failed”.
With “MSSLFNVNAQFWASLIDSPLKILVHILDIAIVSWLIYKFIKALAGTKVMSLVQGVVLFVLFKFVAEFLGFTTIAFLMNQVITYGVIAGVVIFAPEIRSGLERFGRTPQSFIQRQQLSDDEKLVAAFVKAVAYMSPRKIGALVSIEETQTLREYIATGIPLDADISGELLINIFIPNTPLHDGAVIVEGNKIAVSCAYLPLSESSHISKEFGTRHRAAIGLSEASDAFTFVVSEETGAISVAYKGDFIHDLSLEAFEVLLREHFIKEEPKKKNWMKQFFGGRHHV” the protein production was “failed”.
In the case of “MSSLKGKRIGFGLTGSHCTYEAVFPQIEELVNEGAEVRPVVTFNVKSTNTRFGEGAEWVKKIEDLTGYEAIDSIVKAEPLGPKLPLDCMVIAPLTGNSMSKLANAMTDSPVLMAAKATIRNNRPVVLGISTNDALGLNGTNLMRLMSTKNIFFIPFGQDDPFKKPNSMVAKMDLLPQTIEKALMHQQLQPILVENYQGND”, the protein production is reported as “failed”.
In the case of “MSSLVQSVDWLAIAPPTLAAVVGLVVLVADLFIGDHKKALLGWVSVAGLAASALLLLPLLDGDRATFCLTGDANTCSYTADHFTLAIQFLVLGGALLAALLSVTALKDADREIPEGEFWFLLLSSAAGAALLPASRDLATLIVALEVASLPAFALVGIKRGDKKSSEAALKFFLSSVTATAVSLMGVSFVYASTGTLYLTEIARKIQHVDGQLHTLAQTGVVLTLVGFAFKTAAVPFHFWVPDTYVGAPLPIAAYLSVVGKAVGFSGLILVTVVAFPSYADVWGPALAALAALTMTVGNVGALRQQATRAYSAVRLLAWSSVGQAGYLLVPIAAAAYSKDAEKAIGSTVAYALMYAAVNLGAFAVAALVGRTKVLNRVSDYRGLYASNPLAALLLGFFLLCLAGLPPGIIGLFAKVTVFSAAVDAGLGWLAVVMAVNVVIALFYYLQWTTLLFRAPEGEPEKHRVPAPLTAAIALTAVLGVALSGAPQLVLRFSDTGLF”, the protein production is reported as “failed”.
In the case of “MSSNASTEKQHAGGEKTVKAEPQSTSSQKDSTDDYQPNSQVTDDRTLHKVGQTFSDDKGKAVLKDIKQVNKTYKIGDVELTVKEMKLIHLRPDYSMIDYFHELTHDEEFDFVKVFVDIKNTSTKKVNVAPIALMKTNTGETFDWNKDIYLEELNGELEGGAEKSGNLGFIVNASSGHAHDKAADAEKKTKEIKWIEITTSDVFDHNHKKISDAQKIKIKFLEHHHHHH”, the protein production is reported as “not failed”.
In the case of “MSSNECFKCGRSGHWARECPTGGGRGRGMRSRGRGFQFVSSSLPDICYRCGESGHLAKDCDLQEDACYNCGRGGHIAKDCKEPKREREQCCYNCGKPGHLARDCDHADEQKCYSCGEFGHIQKDCTKVKCYRCGETGHVAINCSKTSEVNCYRCGESGHLARECTIEATA”, the protein production is reported as “failed”.
